In test [1] the target is Fructose-1,6-bisphosphate aldolase FBA^P of Bacillus methanolicus MGA3 (encoded on plasmid pBM19) (Bacillus methanolicus MGA3). Briefly: crystal structure; FBA^P crystallised by sitting-drop vapor diffusion at 8°C; reservoir 20% PEG 4000, 0.2 M imidazole/malate buffer pH 6; molecular replacement with PDB 3Q94.
In test [2] the target is Fructose-1,6-bisphosphate aldolase FBA^C of Bacillus methanolicus MGA3 (chromosomally encoded) (Bacillus methanolicus MGA3). Briefly: crystal structure; FBA^C crystallised by sitting-drop vapor diffusion at 20°C; reservoir 0.1 M sodium acetate trihydrate pH 4.5, 2.0 M ammonium sulfate; molecular replacement with PDB 3Q94.

With “Fructose-1,6-bisphosphate aldolase FBA^P of Bacillus methanolicus MGA3 (encoded on plasmid pBM19) (enzyme)”, the stoichiometry N in test [1] was determined as 4. In test [2], “Fructose-1,6-bisphosphate aldolase FBA^C of Bacillus methanolicus MGA3 (chromosomally encoded) (enzyme)” displayed a stoichiometry N of 4.

The term stoichiometry N denotes a count of units in the complex or per binding partner.

The values above are taken from PMC8119897.
